The target of this assay is 80S ribosome (rabbit (endogenous in reticulocyte lysate)). Briefly: co-sedimentation.

With “SRdC, SRαβΔTM with the CBR of SRα (residues 129–176) replaced with (GS)6 (from UniProt P08240;Q9Y5M8) (complex)”, the fold reduction of cosedimentation against WT SR was over 2 fold.
To “SRdR, SRαβΔTM with the RBR of SRα (residues 205–250) replaced with (GS)6 (from UniProt P08240;Q9Y5M8) (complex)” belongs over 2 fold.

The record behind these values is publication PMC6781444.
